Source: paper PMC4319926, “Deciphering the Stepwise Binding Mode of HRG1β to HER3 by Surface Plasmon Resonance and Interaction Map” (PLoS ONE, 2015)

Key:
Details in all cases: both partners purified
[1] = molecular target: T1, human HER3 extracellular domain (human, UniProt P21860 20-643); test: SPR; assay C: Biacore T200, 25°C; HER3 bound to mAb208 captured by immobilised rabbit anti-mouse antibody on CM5; HRG1β injected at 105-1.3 nM, 60 µl/min, 5 min association, 10 min dissociation; 10 mM HEPES pH 7.4, 150 mM NaCl, 1 mM EDTA, Tween 20, 1 mg/ml carboxymethyldextran; evaluated by 1:1 Langmuir fit (apparent), two-state reaction model and Interaction Map
T1 construct: HER3 (ErbB3) receptor extracellular domain, human, MW 68 kDa; Printed MW 68 kDa; also called ECD3; HER3-ECD; source: from Dr. Birgit Bossenmaier, Roche Diagnostics GmbH, Penzberg

HER3-Avi-biotin = molecular target: T2, HER3-Avi-biotin (human, UniProt P21860 20-643, single biotin on the C-terminal Avi-Tag); test: SPR; assay D: Biacore T200, 25°C; HER3-Avi-biotin captured via streptavidin on CAP chip, no mAb208; HRG1β injected at 105-1.3 nM, 60 µl/min, 5 min association, 10 min dissociation; same sample buffer; evaluated by 1:1 Langmuir fit, two-state reaction model and Interaction Map
T2 construct: HER3 (ErbB3) extracellular domain with C-terminal Avi-Tag, singly biotinylated, MW 70 kDa; Printed MW 70 kDa; It was captured through streptavidin on a Biotin CAPture chip; also called bi-ECD3; biotinylated HER3-Avi; source: gift of pRED, Roche Diagnostics GmbH (Dr. Jürgen Schanzer); not shown: Avi-Tag, C-terminal, kept

[2] = molecular target: T1, human HER3 extracellular domain; test: SPR; assay C: Biacore T200, 25°C; HER3 bound to mAb208 captured by immobilised rabbit anti-mouse antibody on CM5; HRG1β injected at 105-1.3 nM, 60 µl/min, 5 min association, 10 min dissociation; 10 mM HEPES pH 7.4, 150 mM NaCl, 1 mM EDTA, Tween 20, 1 mg/ml carboxymethyldextran; evaluated by 1:1 Langmuir fit (apparent), two-state reaction model and Interaction Map; remark: listed apart in the source

T2 sequence (P21860 20-643): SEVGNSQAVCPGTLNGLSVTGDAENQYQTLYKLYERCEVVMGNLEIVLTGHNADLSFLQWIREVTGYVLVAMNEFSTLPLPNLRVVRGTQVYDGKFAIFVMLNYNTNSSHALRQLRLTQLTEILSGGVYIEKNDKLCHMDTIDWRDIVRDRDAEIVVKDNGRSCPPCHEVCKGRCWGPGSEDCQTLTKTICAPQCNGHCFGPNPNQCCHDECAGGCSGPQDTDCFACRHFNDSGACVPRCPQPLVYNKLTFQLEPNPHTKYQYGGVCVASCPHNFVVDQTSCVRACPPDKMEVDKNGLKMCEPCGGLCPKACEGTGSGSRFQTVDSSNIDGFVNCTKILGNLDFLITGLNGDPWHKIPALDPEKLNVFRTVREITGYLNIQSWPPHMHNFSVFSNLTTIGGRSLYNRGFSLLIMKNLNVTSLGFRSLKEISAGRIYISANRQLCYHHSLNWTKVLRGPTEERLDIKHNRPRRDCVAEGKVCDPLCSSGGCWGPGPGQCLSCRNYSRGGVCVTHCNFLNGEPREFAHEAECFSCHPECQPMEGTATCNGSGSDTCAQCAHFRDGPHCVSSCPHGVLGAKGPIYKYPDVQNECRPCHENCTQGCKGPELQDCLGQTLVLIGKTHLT
T1 sequence (P21860 20-643): as above

- stoichiometry N [1]: 0.5
- Kd (HER3-Avi-biotin): 0.38 nM
- koff (HER3-Avi-biotin): 0.0046 s⁻¹
- kon (HER3-Avi-biotin): 1.2e+07 M⁻¹ s⁻¹
- stoichiometry N (HER3-Avi-biotin): 0.84
- Kd [2]: 0.33 nM
- koff [2]: 0.04 s⁻¹
- kon [2]: 1.2e+08 M⁻¹ s⁻¹
- stoichiometry N [2]: 0.56
B1: human heregulin β1 (ligand, UniProt Q02297-6 20-246, looked up)
chain: SGKKPESAAGSQSPALPPRLKEMKSQESAAGSKLVLRCETSSEYSSLRFKWFKNGNELNRKNKPQNIKIQKKPGKSELRINKASLADSGEYMCKVISKLGNDSASANITIVESNEIITGMPASTEGAYVSSESPIRISVSTEGANTSSSTSTSTTGTSHLVKCAEKEKTFCVNGGECFMVKDLSNPSRYLCKCPNEFTGDRCQNYVMASFYKHLGIEFMEAEELYQK
notes: heregulin β1 (neuregulin-1, beta 1 isoform), human, MW 25 kDa; The printed MW of 25 kDa is larger than an EGF-like domain alone; also called HRG1β; Heregulin 1 beta; source: from Dr. Birgit Bossenmaier, Roche Diagnostics GmbH, Penzberg
